US11618906B2, “Hydroxylation techniques” (HYPHA DISCOVERY LTD., priority 2018, dated 2023)
Numbering of substitutions follows the chain as printed. Names and notes keep the numbering of the source.

B1: aluC09M17: cytochrome P450 aluC09 mutant T291N; amino acid sequence SEQ ID NO: 16 (protein, listed as Amycolatopsis lurida)
chain: MTDVEETTATLPLARKCPFSPPPEYERLRRESPVSRVGLPSGQTAWALTRLEDIREMLSSPHFSSDRQSPSFPLMVARQIRREDKPFRPSLIAMDPPEHSRARRDVVGEFTVKRMKALQPRIQQIVDEHLDALLAGPKPADLVQALSLPVPSLVICELLGVPYSDHEFFQSCSSRMLSREVTAEERMTAFEQLENYLDELVTKKEANATEDDLLGRQILKQRETGEADHGELVGLAFLLLIAGHETTANMISLGTVTLLENPDQLAKIKADPGKTLAAIEELLRVFTIAENATSRFATADVEIGGTLIRAGEGVVGLSNAGNHDPDGFENPDTFDIERGARHHVAFGFGVHQCLGQNLARLELQIVFDTLFRRVPGLRIAVPVDELPFKHDSTIYGLHALPVTW
B2: aluC09M36: cytochrome P450 aluC09 mutant T291F; amino acid sequence SEQ ID NO: 56 (protein, listed as Amycolatopsis lurida)
chain: B1 chain with N291F
B3: aluC09M31: cytochrome P450 aluC09 mutant T291S; amino acid sequence SEQ ID NO: 36 (protein, listed as Amycolatopsis lurida)
chain: B1 chain with N291S

assay: Hydroxylation of diclofenac catalysed by cytochrome P450 aluC09 and mutants (UPLC-PDA-MS); assay type: biochemical; conditions: % by UV peak area at 275 nm; 0.125 mg/ml substrate, 27° C., 16-20 hours
How it was run: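 Conversion of diclofenac (0.125 mg/ml) to hydroxy metabolites measured by UPLC with UV and MS detection, identities confirmed by authentic samples. Reactions used P450 aluC09 variants with ferredoxin aluF03, reductase SCF15A and an NADP/G6P/G6PDH recycling system, pH 7.4 phosphate, 27° C, 16-20 hours.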

First: B1
Second: B2
The “4′,5-dihydroxy-diclofenac 1.38 mins” value of the first is lower: 3.2% for the first, 3.6% for the second.

In the case of B3, the “4′,5-dihydroxy-diclofenac 1.38 mins” value is reported as 3.3%.

First: B1
Second: B2
The “4′-hydroxy-diclofenac (1) 1.62 mins” value of the first is higher: 44.8% for the first, 42.8% for the second.

For B3, the “4′-hydroxy-diclofenac (1) 1.62 mins” value was 43.3%.

Going from B1 to B2, the “5-hydroxy-diclofenac (2) 1.58 mins” value rises from 21.8% to 23.0%.

In the case of B3, the “5-hydroxy-diclofenac (2) 1.58 mins” value is reported as 22.8%.

Going from B1 to B2, the “Diclofenac (Substrate) 1.81 mins” value rises from 32.3% to 33.0%.

With B3 the “Diclofenac (Substrate) 1.81 mins” value was 32.3%.

same assay, conditions: diclofenac; ratio of UV peak areas at 275nm

First: B1
Second: B2
The “Hydroxylated Ratio hydroxy 1:hydroxy 2” value of the first is higher: 2.1 for the first, 1.9 for the second.

For B3, the “Hydroxylated Ratio hydroxy 1:hydroxy 2” value was 1.9.

assay: Hydroxylation of flufenamic acid catalysed by cytochrome P450 aluC09 and mutants; assay type: biochemical; conditions: % by UV peak area at 275 nm; 0.125 mg/ml substrate, 27° C., 16-20 hours
How it was run: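 Conversion measured by UPLC-MS (UV and MS) after acetonitrile extraction, following 16-20 h shaking at 27° C. Reaction: 0.125 mg/ml substrate, P450 mutant plus ferredoxin aluF03 and reductase SCF15A, 5 mM G6P, 1 mM NADP, 2 U/ml G6PDH, pH 7.4 phosphate with 5 mM MgCl2.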

First: B1
Second: B2
The “Flufenamic Acid (Substrate) 1.93 mins” value of the first is higher: 94.4% for the first, 89.8% for the second.

For B3, the “Flufenamic Acid (Substrate) 1.93 mins” value was 89.1%.

Compared with B1, B2 is higher in “Hydroxy-Flufenamic Acid (1) 1.69 mins” value: 3.4% for the first, 7.7% for the second.

In the case of B3, the “Hydroxy-Flufenamic Acid (1) 1.69 mins” value is reported as 6.8%.

Compared with B1, B2 is higher in “Hydroxy-Flufenamic Acid (2) 1.65 mins” value: 2.2% for the first, 2.6% for the second.

In the case of B3, the “Hydroxy-Flufenamic Acid (2) 1.65 mins” value is reported as 4.1%.

same assay, conditions: flufenamic acid; ratio of UV peak areas at 275 nm

First: B1
Second: B2
The “Hydroxylated Ratio 1:2” value of the first is lower: 1.6 for the first, 3.0 for the second.

In the case of B3, the “Hydroxylated Ratio 1:2” value is reported as 1.7.

assay: Hydroxylation of aceclofenac catalysed by cytochrome P450 aluC09 and mutants; assay type: biochemical; conditions: % by UV peak area at 275 nm; 0.125 mg/ml substrate, 27° C., 16-20 hours
How it was run: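 Conversion was assessed by UPLC-MS (UV and MS detection) after acetonitrile extraction of reactions run 16-20 h at 27° C, shaking. Reactions contained substrate at 0.125 mg/ml, P450 mutant plus ferredoxin and reductase partners, 1 mM NADP with glucose-6-phosphate regeneration, in phosphate buffer pH 7.4.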

Compared with B1, B2 is higher in “Aceclofenac (Substrate) (1.80 mins)” value: 9.2% for the first, 9.3% for the second.

In the case of B3, the “Aceclofenac (Substrate) (1.80 mins)” value is reported as 12.3%.

Going from B1 to B2, the “Dihydroxy-Aceclofenac (1.42 mins)” value rises from 43.2% to 44.6%.

In the case of B3, the “Dihydroxy-Aceclofenac (1.42 mins)” value is reported as 43.1%.

Compared with B1, B2 is higher in “Hydroxy-Aceclofenac (1) (1.64 min)” value: 6.9% for the first, 7.2% for the second.

With B3 the “Hydroxy-Aceclofenac (1) (1.64 min)” value was 8.5%.

Going from B1 to B2, the “Hydroxy-Aceclofenac (2) (1.60 min)” value falls from 40.8% to 38.9%.

In the case of B3, the “Hydroxy-Aceclofenac (2) (1.60 min)” value is reported as 36.1%.

same assay, conditions: aceclofenac; ratio of UV peak areas at 275 nm

Going from B1 to B2, the “Hydroxylated Ratio 2:1” value falls from 5.9 to 5.4.

For B3, the “Hydroxylated Ratio 2:1” value was 4.2.

assay: Hydroxylation / de-N-ethylation of napropamide catalysed by cytochrome P450 aluC09 and mutants; assay type: biochemical; conditions: % by UV peak area at 275 nm; 0.125 mg/ml substrate, 27° C., 16-20 hours
How it was run: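 Conversion of napropamide (0.125 mg/ml) to hydroxylated and de-ethylated metabolites was measured by UPLC-MS after acetonitrile extraction. Reactions ran 16-20 h at 27° C in pH 7.4 potassium phosphate (50 mM) with 5 mM MgCl2, 1 mM NADP, 5 mM G6P and 2 UN/ml G6PDH. Enzymes were lyophilised P450 aluC09 variants, ferredoxin aluF03 and ferredoxin reductase SCF15A.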

Compared with B1, B2 is lower in “Desethyl Napropamide (1.62 min)” value: 53.7% for the first, 40.5% for the second.

In the case of B3, the “Desethyl Napropamide (1.62 min)” value is reported as 44.8%.

First: B1
Second: B2
The “Desethyl-hydroxy-Napropamide (1.41 min)” value of the first is higher: 10.6% for the first, 3.1% for the second.

With B3 the “Desethyl-hydroxy-Napropamide (1.41 min)” value was 4.6%.

First: B1
Second: B2
The “Hydroxy-Napropamide (1) (1.53 min)” value of the first is lower: 0.9% for the first, 1.2% for the second.

With B3 the “Hydroxy-Napropamide (1) (1.53 min)” value was 2.4%.

First: B1
Second: B2
The “Hydroxy-Napropamide (2), (1.52 min)” value of the first is lower: 3.1% for the first, 3.5% for the second.

In the case of B3, the “Hydroxy-Napropamide (2), (1.52 min)” value is reported as 5.1%.

First: B1
Second: B2
The “M-2Da (unidentified) (1.89 min)” value of the first is lower: 6.0% for the first, 6.3% for the second.

For B3, the “M-2Da (unidentified) (1.89 min)” value was 7.0%.

Compared with B1, B2 is higher in “Napropamide (substrate)” value: 28.7% for the first, 46.8% for the second.

For B3, the “Napropamide (substrate)” value was 37.9%.

same assay, conditions: napropamide; ratio of UV peak areas

Compared with B1, B2 is lower in “Hydroxylated Ratio 2:1” value: 3.4 for the first, 3.0 for the second.

In the case of B3, the “Hydroxylated Ratio 2:1” value is reported as 2.1.

assay: O-demethylation of indomethacin catalysed by cytochrome P450 aluC09 and mutants; assay type: biochemical; conditions: % by UV peak area at 275 nm; 0.125 mg/ml substrate, 27° C., 16-20 hours
How it was run: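 Conversion was quantified by UPLC-UV/MS after acetonitrile extraction of 16-20 h, 27° C. shaken reactions. These contained 0.125 mg/ml substrate, mutant P450 with partner ferredoxin and reductase, 1 mM NADP plus 5 mM G6P and 2 U/ml G6PDH, in pH 7.4 phosphate with 5 mM MgCl2.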

Compared with B1, B2 is lower in “Indomethacin (1.74 mins)” value: 84.4% for the first, 80.3% for the second.

With B3 the “Indomethacin (1.74 mins)” value was 84.8%.

Compared with B1, B2 is higher in “O-demethyl-Indomethacin (1.52 mins)” value: 15.6% for the first, 19.7% for the second.

In the case of B3, the “O-demethyl-Indomethacin (1.52 mins)” value is reported as 15.2%.

assay: Metabolism of ritonavir by P450 aluC09 and mutants; assay type: biochemical; conditions: percent of substrate being converted; 0.125 mg/ml, 27° C., 16-20 hours; [CYP] per enzyme as in Table 8
How it was run: (§1)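 Conversion by UPLC-MS after acetonitrile extraction of 16-20 h shaken reactions at 27° C. Each held 0.125 mg/ml substrate, aluC09 mutant P450 plus ferredoxin aluF03 and reductase SCF15A, and NADP (1 mM) regenerated by 5 mM G6P with G6PDH, buffered at pH 7.4 phosphate with 5 mM MgCl2.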

Going from B1 to B2, the “% conversions (avg) Ritonavir” value rises from 51.7% to 73.8%.

For B3, the “% conversions (avg) Ritonavir” value was 73.5%.

assay: Metabolism of celecoxib by P450 aluC09 and mutants; assay type: biochemical; conditions: percent of substrate being converted; 0.125 mg/ml, 27° C., 16-20 hours; [CYP] per enzyme as in Table 8
How it was run: as §1

Compared with B1, B2 is lower in “% conversions (avg) Celecoxib” value: 8.1% for the first, 5.7% for the second.

With B3 the “% conversions (avg) Celecoxib” value was 3.6%.

assay: Metabolism of epothilone B by P450 aluC09 and mutants; assay type: biochemical; conditions: percent of substrate being converted; 0.125 mg/ml, 27° C., 16-20 hours; [CYP] per enzyme as in Table 8
How it was run: as §1

Going from B1 to B2, the “% conversions (avg) Epothilone B” value rises from 16.8% to 62.3%.

For B3, the “% conversions (avg) Epothilone B” value was 35.3%.

assay: Metabolism of buparvaquone by P450 aluC09 and mutants; assay type: biochemical; conditions: percent of substrate being converted; 0.125 mg/ml, 27° C., 16-20 hours; [CYP] per enzyme as in Table 8
How it was run: as §1

Compared with B1, B2 is lower in “% conversions (avg) Buparvaquone” value: 17.9% for the first, 9.5% for the second.

In the case of B3, the “% conversions (avg) Buparvaquone” value is reported as 11.3%.

assay: Metabolism of BIRB796 by P450 aluC09 and mutants; assay type: biochemical; conditions: percent of substrate being converted; 0.125 mg/ml, 27° C., 16-20 hours; [CYP] per enzyme as in Table 8
How it was run: as §1

Compared with B1, B2 is lower in “% conversions (avg) BIRB796” value: 23.2% for the first, 20% for the second.

With B3 the “% conversions (avg) BIRB796” value was 15.3%.

assay: Metabolism of bosentan by P450 aluC09 and mutants; assay type: biochemical; conditions: percent of substrate being converted; 0.125 mg/ml, 27° C., 16-20 hours; [CYP] per enzyme as in Table 8
How it was run: as §1

Going from B1 to B2, the “% conversions (avg) Bosentan” value falls from 100% to 99.5%.

For B3, the “% conversions (avg) Bosentan” value was 99%.

assay: Metabolism of valsartan by P450 aluC09 and mutants; assay type: biochemical; conditions: percent of substrate being converted; 0.125 mg/ml, 27° C., 16-20 hours; [CYP] per enzyme as in Table 8
How it was run: as §1

First: B1
Second: B2
The “% conversions (avg) Valsartan” value of the first is lower: 21.9% for the first, 45.7% for the second.

In the case of B3, the “% conversions (avg) Valsartan” value is reported as 33.9%.

assay: Metabolism of ruxolitinib by P450 aluC09 and mutants; assay type: biochemical; conditions: percent of substrate being converted; 0.125 mg/ml, 27° C., 16-20 hours; [CYP] per enzyme as in Table 8
How it was run: as §1

Going from B1 to B2, the “% conversions (avg) Ruxolitinib” value rises from 33.9% to 42.1%.

With B3 the “% conversions (avg) Ruxolitinib” value was 41.7%.

assay: Metabolism of 4-pyrrolidylacetophenone by P450 aluC09 and mutants; assay type: biochemical; conditions: percent of substrate being converted; 0.125 mg/ml, 27° C., 16-20 hours; [CYP] per enzyme as in Table 8
How it was run: as §1

First: B1
Second: B2
The “% conversions (avg) 4-pyrrolidylacetophenone” value of the first is higher: 21.7% for the first, 6.8% for the second.

With B3 the “% conversions (avg) 4-pyrrolidylacetophenone” value was 4.9%.

assay: Metabolism of tivantinib by P450 aluC09 and mutants; assay type: biochemical; conditions: percent of substrate being converted; 0.125 mg/ml, 27° C., 16-20 hours; [CYP] per enzyme as in Table 8
How it was run: as §1

First: B1
Second: B2
The “% conversions (avg) Tivantinib” value of the first is higher: 53.9% for the first, 30.4% for the second.

With B3 the “% conversions (avg) Tivantinib” value was 56%.

assay: Metabolism of tofacitinib by P450 aluC09 and mutants; assay type: biochemical; conditions: percent of substrate being converted; 0.125 mg/ml, 27° C., 16-20 hours; [CYP] per enzyme as in Table 8
How it was run: as §1

First: B1
Second: B2
The “% conversions (avg) Tofacitinib” value of the first is higher: 4.4% for the first, 2.4% for the second.

In the case of B3, the “% conversions (avg) Tofacitinib” value is reported as 1.5%.
